According to publication PMC3347520, “Relative Comparison of Catalytic Characteristics of Human Foamy Virus and HIV-1 Integrases”:

Target: HFV integrase (HFV IN) (Human foamy virus, UniProt P14350 752-1143)
Test: EMSA; 5 mM Mg2+
Conditions: protein: recombinant; chain copies: 4; blunt

B1: U5-HFV duplex (U5B-HFV/U5A-HFV) (dsDNA)
DNA 1: ATACAAAATTCCATGACAAT
DNA 2: ATTGTCATGGAATTTTGTAT
For B1, the Kd was 17.3 nM.
